The source of these data is patent US20030194727.

Data set [1] deals with K5 ZFP (VSSR-DGNV-VSSR-VDYK-Gal4AD) (Artificial Sequence). Put plainly: EMSA. Conditions: reference for the mutant comparison; binding of parent K5 implied by gel shift; exact probe not given, degenerate expected site. A general note: Mobility shift assays separate free from complexed probe on a gel.
Data set [2] deals with K5 mutant ZFP (VSSR-DGAV-VSSR-VDYK-Gal4AD) N80A (Asn DNA-contacting residue of finger 2, DGNV to DGAV; position counted in SEQ 225) (Artificial Sequence). Put plainly: EMSA. Conditions: at least 10-fold decrease in DNA-binding affinity for expected site; no ketoconazole resistance in yeast.
K5 mutant ZFP (VSSR-DGAV-VSSR-VDYK-Gal4AD) N80A (Asn DNA-contacting residue of finger 2, DGNV to DGAV; position counted in SEQ 225) (Artificial Sequence), sequence (chain, as listed by the source N80A): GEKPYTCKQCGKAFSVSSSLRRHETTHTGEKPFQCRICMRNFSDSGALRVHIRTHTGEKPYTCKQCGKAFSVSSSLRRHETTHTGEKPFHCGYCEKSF

K5 ZFP (VSSR-DGNV-VSSR-VDYK-Gal4AD) (Artificial Sequence), sequence (chain, as listed by the source): as the sequence (chain, as listed by the source N80A) above, with A47N counted along it

As to “KATGTDAACGTD (double strand) [K5 expected target site]”, the binding signal is 1 in data set [1] and < 0.1 fold of K5 in data set [2].
